Measurements as given in patent publication US12448425B2, “Therapeutic peptides” (Board of Regents, The University of Texas System, priority 2019, dated 2025).

Assays:
[1] = Particle size by transmission electron microscopy; assay type: physicochemical
Description: CCPM-BIDEN-AP conjugation. CCPM with amine functionalized surface was synthesized according to reported procedures (Koolpe et al., 2005). To introduce a maleimide group to the CCPM, an aliquot of N-(γ-maleimidobutyryloxy)-succinimide ester) (GMBS) in DMF ([…], 0.16 mmol) was added into the CCPM ([…], 2.6 nmol nanoparticles) in 1.2 mL of phosphate-buffered saline solution (PBS, pH 8). The mixture was stirred for 3 h at 37° C. The product was purified using a PD-10 column to remove unreacted GMBS. To introduce a sulfhydryl group to BIDEN-AP, the amino acid cysteine was conjugated to the N-terminal amine of BIDEN-AP. The resulting sulfhydryl-containing Cys-BIDEN-AP was mixed with 2 mL of a solution of CCPM-maleimide (0.16 mmol equivalent maleimide) in PBS with a 2:1 molar ratio of Cys-BIDEN-AP to maleimide groups (CCPM). […] The unreacted Cys-BIDEN-AP was quantified on an Agilent 1100 Series LC/MSD-TOF instrument equipped with a Vydac C18 column. The molar ratio of BIDEN-AP to CCPM was calculated on the basis of Cys-BIDEN-AP consumed (total Cys-BIDEN-AP minus remaining Cys-BIDEN-AP). The size of CCPM-BIDEN-AP was determined by transmission electron microscopy (TEM). […]

[2] = tested on: Bev-resistant RF24 cells; test: Cell death in bevacizumab-resistant RF24 cells (SYTOX-green flow cytometry); assay type: cell-based
Description: FIGS. 4A-D: BIDEN-AP-based agents inhibit microtubule formation and sensitizes resistant endothelial cells to anti-VEGF antibody. (FIG. 4A, FIG. 4B) Microtubule formation in RF24 cells treated with EFNB2-Fc (2 nM) or BIDEN-AP (15 μM) compared to untreated controls (CTL). Five images per well were taken at ×100 magnification. […] Representative plots from flow cytometry analysis with SYTOX-green are shown. […] Data are presented as mean±SD (n=6). *p<0.05, **p<0.01.
Given the important role of endothelium in adaptive changes with anti-angiogenic therapy (Bergers et al., 2008), we further tested the effects of BIDEN-AP in overcoming resistance to anti-VEGF therapy in RF24 cells. To do this, we first established a bevacizumab (Bev)-resistant RF24 cell line selected though continuous Bev treatment at low dose ([…]) for 2 weeks. The Bev-resistant RF24 cells were maintained at a Bev concentration of […]. Using flow cytometry with SYTOX-green staining, we quantified the live (SYTOX-negative) vs. dead (SYTOX-positive) populations after treatment with BIDEN-AP or CCPM-BIDEN-AP.

With “CCPM-BIDEN-AP: nano-conjugate of Cys-BIDEN-AP on core-crosslinked polymeric micelles via maleimide (GMBS) (CTNYLFSPNGPIARAW; D-residues)” the “mean diameter (TEM)” value [1] was 24±3 nm and the “sensitization of Bev-resistant cells to Bev treatment” value [2] was “re-sensitized these cells to Bev treatment”.
